The values that follow come from paper PMC2196876.

For this assay, the target named is epitope-tagged full-length hVam6p (HA–hVam6p and Myc–hVam6p) (human). As to the kind of experiment: sucrose gradient sedimentation velocity with immunoprecipitation of fractions.

Take “epitope-tagged full-length hVam6p (HA–hVam6p and Myc–hVam6p) (natural protein)”: the stoichiometry N (in general, the number of molecules, sites or subunits per partner or assembly) worked out at 3.
